Source: patent US10463752B2, “Protein polymer gold nanoparticle hybrid materials for small molecule delivery” (New York University, priority 2016, dated 2019)
Where “and” joins values, the source holds several entries; their conditions need not be identical. Identical values can stand only once. Marks after values point to notes of the source that are not given here.

Key:
[1] = system: MCF7 human breast cancer cells; test: MTS cell viability assay; conditions: absorbance at 490 nm
Experimental: (§1) Cell viability measurements were carried out using a CellTiter 96® Aqueous One solution kit (Promega) in a 96-well plate, seeded 1×10^4 cells/well. After 24 hours, the cells were treated for 4 hours or 24 hours with protein polymers and P•G NPs with and without curcumin along with control treatments of curcumin alone and media alone. After the treatment periods, 20 μL [3-(4,5-dimethylthiazol-2-yl)-5-(3-carboxymethoxyphenyl)-2-(4-sulfophenyl)-2H-tetrazolium (MTS) was added to each well, followed by incubation at 37° C. for 3 hours. The plate was centrifuged for 3 minutes at 2500 rpm and then subjected to absorbance measurements at 490 nm (Tables 3 and 4).

[2] = system: MCF7 human breast cancer cells; test: Curcumin uptake in MCF7 cells by fluorescence microscopy; format: cell-based; conditions: complexed with curcumin
Experimental: MCF7 human breast cancer cells were obtained from ATCC and maintained at 37° C., 5% CO2 as monolayer cultures in Dulbecco's modified Eagle's medium (DMEM with high glucose containing phenol red) supplemented with 10% (v/v) fetal bovine serum (FBS), gentamicin (50 μg/mL), 100 U penicillin/100 μg/mL streptomycin. Because the loading capacities of curcumin for P•GNP nanocomposites are much larger than those of the proteins in the absence of GNP we prepared two corresponding curcumin controls that represented the bound curcumin levels in P•G NPs and protein polymers alone (Table 2). To avoid any uptake of unbound curcumin by the cells directly, we limited the curcumin amount that is equivalent to the loading capacity of 26 μM of protein samples in 50 mM sodium phosphate buffer, pH 7.4 and allowed to bind for 2 hours at room temperature prior to cell culture studies.
Multiple sets of experiments were performed to record curcumin uptake by image acquisition using FITC filter (Em: 520 nm) under fluorescence microscopy and direct measurement of curcumin uptake in cell extractions. Cells were grown directly on 24-well culture plates (8×10^4 cells/well) for cell extraction or on cover slips for microscopy. After 24 hours of cell plating, cells were treated for 4 or 24 hours with different combination of proteins with or without GNP and/or curcumin. For all the treatments, the total volume of samples with DMEM in 24-well plates was kept constant at 300 μL with proteins prepared at 10 μM concentrations. The ratio of sample amount to number of cells was also kept constant. The results are representative of two such independent sets of experiments.
For fluorescent imaging of curcumin uptake, cells on coverslips were fixed with 300 μL 4% paraformaldehyde solution in DPBS for 20 minutes at room temperature on a plate rocker. […] Cells were viewed using fluorescence microscope IX71 (Olympus) using DAPI (for cell nuclei) and FITC (for curcumin uptake) at 60× magnification while keeping the exposure time for the FITC images constant at 200 milliseconds.

[3] = system: MCF7 human breast cancer cells
Experimental: as §1

[4] = protein polymer without GNP; data from Haghpanah et al., Mol. Biosys. 2010; cited from earlier work
[5] = Curcumin release over time; format: physicochemical; conditions: by 8.25 hrs, room temperature, 50 mM phosphate buffer pH 7.4
Experimental: Release of curcumin from CE1-His6, E1C-His6, CE1-His6•GNP and E1C-His6•GNP was then investigated. Curcumin (26 nmol) was added to 200 μL of 26 μM (5.2 nmol) protein sample. After 2 hours of incubation at room temperature, the solution was adjusted to contain a final concentration of 0.5 M NaCl. The protein polymer•curcumin complex (in the presence or absence of GNP) were incubated at 45° C. (well above the TO for 30 min and centrifuged to separate protein polymer•curcumin complex from excess curcumin. The pellets were resuspended in 200 μL of 50 mM phosphate buffer, pH 7.4 and kept at room temperature in the dark for release. After 10 min, the suspensions were centrifuged and the supernatant was removed and used for extraction assessment of released curcumin. This resuspension-incubation-spin-release cycle was repeated for the next eight hours at the following time points: 10, 25, 55, 85, 135, 195, 255, 315 and 495 min. Release study was performed on two different protein sample preparations to obtain the averaged release profile. Error bars on the release data represented standard error of the two sample preparations.

[6] = Turbidometry, inverse temperature transition (Tt); format: physicochemical; conditions: midpoint of turbidity at 800 nm
Experimental: The turbidometry, or inverse temperature transition (Tt), was determined via UV-Vis Spectrophotometer Cary-50 (Agilent Technology) equipped with TC 125 temperature controller (Quantum Northwest) in Type 21 quartz cuvette with 10 mm path length (Buck Science) by monitoring the change in turbidity at 800 nm from 25° C. to 80° C. at a rate of 1° C./min. Protein stock solutions for Tt measurement were prepared in 0.2 mg/mL (or 14.3 μM and 14.4 μM for CE1-His6 and E1C-His6, respectively) in 10 mM sodium phosphate buffer, pH 8.0. In order to bring Tt value of all the samples into instrument operation range, highly concentrated NaCl solution was added prior to Tt measurement (Table 1). Measurements were performed on at least two different protein sample preps to calculate the average Tt. The Tt was determined at the midpoint of the normalized turbidity.

[7] = Curcumin loading capacity (small molecule loading); format: physicochemical; conditions: ratio of curcumin to protein or P•G NP; 2 hours incubation at room temperature
Experimental: Curcumin (6.5 nmol final concentration from 3 mM stock solution in HPLC grade methanol) was incubated with 1.3 nmol of CE1-His6, E1C-His6, CE1-His6•GNP and E1C-His6•GNP at room temperature for 2 hours and loaded onto Bio-Rad Spin6 columns packed with Sephadex G-25 medium beads 0.5 cm high. Bound protein polymer•curcumin complexes (in the presence or absence of GNP) were eluted by size, washed 3 times in 50 μL sodium phosphate buffer, followed by centrifugation for 5 min at 14000 rpm. The beads containing unbound curcumin were collected separately and resuspended back to buffer for solvent extraction. Both bound and unbound curcumin were extracted by adding 150 μL ethyl acetate and quantitatively determined by measuring absorbance at 416 nm. Absorbance was measured in a Hellma 105.201-QS type cuvette (10 mm light path, 100 μL sample) on SpectraMax M2. This binding study was performed on at least three different protein sample preparations to calculate the average loading capacities with errors represented as the standard deviation of the three trials.

COc1cc(/C=C/C(=O)CC(=O)/C=C/c2ccc(O)c(OC)c2)ccc1O [curcumin]
Abs. (MTS Assay) ([1]; 4 Hour Treatment, listed as CCM1): 2.039 ± 0.00 and 1.999 ± 0.05 | Abs. (MTS Assay) ([1]; 4 Hour Treatment, listed as CCM2): 2.044 ± 0.01 and 2.025 ± 0.02 | Abs. (MTS Assay) ([1]; 24 Hour Treatment, listed as CCM1): 1.974 ± 0.01 and 2.034 ± 0.02 | Abs. (MTS Assay) ([1]; 24 Hour Treatment, listed as CCM2): 1.98 ± 0.04 and 1.999 ± 0.01 | curcumin uptake visualized by fluorescence (FITC channel) [2]: did not show any uptake

B1: E1C-His6: protein diblock polymer with N-terminal hexahistidine tag, elastin-like E1 domain then COMPcc coiled-coil C domain (SEQ ID NO: 14) (protein)
chain: MRGSHHHHHHGSKPIAASAVPGVGVPGVGVPGFGVPGVGVPGVGVPLEGSELAATATATATATATAACGDLAPQMLRELQETNAALQDVRELLRQQVKEITFLKNTVMESDASGLQAATATATATATATAVDLQPS
cytotoxicity (MTS assays) [3]: neither the protein polymer nor P•G NPs s exhibited cytotoxicity | Size of protein particles [4]: 27.9 ± 3.7^a nm | release of free curcumin [5]: 78.8% | Tt ([6]; 0.1818 mg/mL protein, 0.45M NaCl): 33.8 ± 2.2 °C | curcumin uptake visualized by fluorescence (FITC channel) [2]: uptake albeit substantially less than the P•G NPs | CCM/P molar binding ratio [7]: 0.41 ± 0.10

B2: CE1-His6: protein diblock polymer with N-terminal hexahistidine tag, COMPcc coiled-coil C domain then elastin-like E1 domain (SEQ ID NO: 13) (protein)
chain: MRGSHHHHHHGSACELAATATATATATATAACGDLAPQMLRELQETNAALQDVRELLRQQVKEITFLKNTVMESDASGLQAATATATATATATAVDKPIAASAVPGVGVPGVGVPGFGVPGVGVPGVGVPLEGSGTGAKLN
cytotoxicity (MTS assays) [3]: neither the protein polymer nor P•G NPs s exhibited cytotoxicity | Size of protein particles [4]: 26.0 ± 3.0^a nm | release of free curcumin [5]: 77.0% | Tt ([6]; 0.1621 mg/mL protein, 0.946M NaCl): 55.0 ± 0.8 °C | curcumin uptake visualized by fluorescence (FITC channel) [2]: uptake albeit substantially less than the P•G NPs | CCM/P molar binding ratio [7]: 0.40 ± 0.06
